Measured values reported in US20160145654.

Biological target: IL-2-phaP fusion polypeptide on the surface of polymer particles (PHA granules), P04351
Sequence (P04351 whole entry, looked up, the tested form may be a part): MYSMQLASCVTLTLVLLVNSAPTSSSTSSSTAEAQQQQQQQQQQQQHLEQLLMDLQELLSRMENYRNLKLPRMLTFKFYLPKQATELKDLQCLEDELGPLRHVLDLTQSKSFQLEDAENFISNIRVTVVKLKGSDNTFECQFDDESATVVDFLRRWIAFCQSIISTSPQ

B1: bovine enterokinase (protein)
chain: IVGGSDSREGAWPWVVALYFDDQQVCGASLVSRDWLVSAAHCVYGRNMEPSKWKAVLGLHMASNLTSPQIETRLIDQIVINPHYNKRRKNNDIAMMHLEMKVNYTDYIQPICLPEENQVFPPGRICSIAGWGALIYQGSTADVLQEADVPLLSNEKCQQQMPEYNITENMVCAGYEAGGVDSCQGDSGGPLMCQENNRWLLAGVTSFGYQCALPNRPGVYARVPRFTEWIQSFLH
  fluorescence of IL-2-phaP particles stained with anti-IL-2-PE after 1 hr incubation with enterokinase (FACS): a smaller shift in fluorescence intensity indicates that a proportion of IL-2 has been cleaved from the particles
  fluorescence of IL-2-phaP particles stained with anti-IL-2-PE after 16 hours incubation with enterokinase (FACS): no IL-2 is detectable on the surface of the polymer particles, indicating the IL-2 has been cleaved from the polymer particles
